Data reported in PMC11201802 (Protein Science : A Publication of the Protein Society, 2024).
Each block holds one binder with its values, some of them ahead of it.

What was measured:
Assay in all cases: crystal structure
Fab^S1CE1-EPR-1 = molecular target: Fab^S1CE1-EPR-1
[1] = molecular target: extracellular domain (ECD) of the human erythropoietin receptor (EPOR) with a C-terminal hexahistidine tag (human, UniProt P19235)
Fab^S1CE3-EPR-1 = molecular target: Fab^S1CE3-EPR-1
Fab^S1CE4-EPR-1 = molecular target: Fab^S1CE4-EPR-1

Chain of extracellular domain (ECD) of the human erythropoietin receptor (EPOR) with a C-terminal hexahistidine tag (P19235 25-250): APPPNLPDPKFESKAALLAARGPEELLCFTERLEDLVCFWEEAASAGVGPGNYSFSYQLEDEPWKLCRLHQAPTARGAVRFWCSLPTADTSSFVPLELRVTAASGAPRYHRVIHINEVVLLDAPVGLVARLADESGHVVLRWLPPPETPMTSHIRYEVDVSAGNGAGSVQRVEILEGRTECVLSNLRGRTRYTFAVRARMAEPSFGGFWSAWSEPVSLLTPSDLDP

B1: Fab^S1CE1-EPR-1 (Fab, V domains shown)
VH: EVQLVESGGGLVQPGGSLRLSCAASGFNLRSYYMHWVRQAPGKGLEWVASISPYYSYTYYADSVKGRFTISADTSKNTAYLQMNSLRAEDTAVYYCARHGYGAMDYWGQGTLVTVFN
VL: DIQMTQSPSSLSASVGDRVTITCRASQSVSSAVAWYQQKPGKAPKLLIYSASSLYSGVPSRFSGSRSGTDFTLTISSLQPEDFATYYCQQSSYSLITFGQGTKVEIK
stoichiometry N (Fab^S1CE1-EPR-1): 2

B3: Fab^S1CE3-EPR-1 (Fab, V domains shown)
VH: EVQLVESGGGLVQPGGSLRLSCAASGFNLRSYYMHWVRQAPGKGLEWVASISPYYSYTYYADSVKGRFTISADTSKNTAYLQMNSLRAEDTAVYYCARHGYGAMDYWGQGTLVTVFN
VL: DIQMTQSPSSLSASVGDRVTITCRASQSVSSAVAWYQQKPGKAPKLLIYSASSLYSGVPSRFSGSRSGTDFTLTISSLQPEDFATYYCQQSSYSLITFGQGTKVEIK
stoichiometry N (Fab^S1CE3-EPR-1): 2

Other lines, results leading:

binding result [1]: binds
B2: Fab^S1CE-EPR-1 (Fab, V domains shown)
VH: EVQLVESGGGLVQPGGSLRLSCAASGFNLRSYYMHWVRQAPGKGLEWVASISPYYSYTYYADSVKGRFTISADTSKNTAYLQMNSLRAEDTAVYYCARHGYGAMDYWGQGTLVTVFN
VL: DIQMTQSPSSLSASVGDRVTITCRASQSVSSAVAWYQQKPGKAPKLLIYSASSLYSGVPSRFSGSRSGTDFTLTISSLQPEDFATYYCQQSSYSLITFGQGTKVEIK

stoichiometry N (Fab^S1CE4-EPR-1): 2
B4: Fab^S1CE4-EPR-1 (Fab, V domains shown)
VH: EVQLVESGGGLVQPGGSLRLSCAASGFNLRSYYMHWVRQAPGKGLEWVASISPYYSYTYYADSVKGRFTISADTSKNTAYLQMNSLRAEDTAVYYCARHGYGAMDYWGQGTLVTVFN
VL: DIQMTQSPSSLSASVGDRVTITCRASQSVSSAVAWYQQKPGKAPKLLIYSASSLYSGVPSRFSGSRSGTDFTLTISSLQPEDFATYYCQQSSYSLITFGQGTKVEIK
